From paper doi:10.1101/2023.03.09.531510

What was measured:
Test in all cases: protein-fragment complementation
Rvs167 = Rvs167 (UniProt P39743)
Arc40 = Arc40 (UniProt P38328)
Arc19 = Arc19 (UniProt P33204)
Sac6 = Sac6 (UniProt P32599)
Yor1 = Yor1 (UniProt P53049)
Ssb1 = Ssb1 (UniProt P11484)
Osh2 = Osh2 (UniProt Q12451)
Bmh1 = Bmh1 (UniProt P29311)
Bbc1 = Bbc1 (UniProt P47068)
Ste20 = Ste20 (UniProt Q03497)
Pab1 = Pab1 (UniProt P04147)
Tif4631 = Tif4631 (UniProt P39935)
Cdc3 = Cdc3 (UniProt P32457)
Chc1 = Chc1 (UniProt P22137)
Arc18 = Arc18 (UniProt Q05933)
Sequence of UniProt Q05933 (Q05933 whole entry): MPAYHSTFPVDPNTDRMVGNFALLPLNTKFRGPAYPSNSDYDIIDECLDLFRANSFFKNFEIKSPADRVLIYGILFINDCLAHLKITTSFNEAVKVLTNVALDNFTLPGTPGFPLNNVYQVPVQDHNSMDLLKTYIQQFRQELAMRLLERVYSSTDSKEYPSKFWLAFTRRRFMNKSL

Ysc84 = Ysc84 (UniProt P32793)
Syp1 = Syp1 (UniProt P25623)
Myo5 = Myo5 (UniProt Q04439)
Pfk1 = Pfk1 (UniProt P16861)
Mid2 = Mid2 (UniProt P36027)
Sequence of UniProt P36027 (P36027 whole entry): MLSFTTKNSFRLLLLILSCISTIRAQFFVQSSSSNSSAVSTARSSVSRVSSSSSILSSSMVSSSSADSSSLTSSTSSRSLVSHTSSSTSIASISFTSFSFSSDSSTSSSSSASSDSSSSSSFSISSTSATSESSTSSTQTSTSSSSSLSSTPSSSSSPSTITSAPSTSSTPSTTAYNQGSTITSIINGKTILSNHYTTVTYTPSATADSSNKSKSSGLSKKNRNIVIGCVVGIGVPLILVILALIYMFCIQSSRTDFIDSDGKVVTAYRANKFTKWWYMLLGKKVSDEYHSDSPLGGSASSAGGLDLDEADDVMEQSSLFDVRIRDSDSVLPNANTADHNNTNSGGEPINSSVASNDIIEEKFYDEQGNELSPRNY

Sbp1 = Sbp1 (UniProt P10080)
Lsb3 = Lsb3 (UniProt P43603)
Vrp1 = Vrp1 (UniProt P37370)
Aim21 = Aim21 (UniProt P40563)
Ssz1 = Ssz1 (UniProt P38788)
Sla2 = Sla2 (UniProt P33338)
Smi1 = Smi1 (UniProt P32566)
Bzz1 = Bzz1 (UniProt P38822)
Ssb2 = Ssb2 (UniProt P40150)
Srv2 = Srv2 (UniProt P17555)
Tdh3 = Tdh3 (UniProt P00359)
Arc15 = Arc15 (UniProt P40518)
Ygl242c = Ygl242c (UniProt P53066)
Hsp104 = Hsp104 (UniProt P31539)
Sequence of UniProt P31539 (P31539 whole entry): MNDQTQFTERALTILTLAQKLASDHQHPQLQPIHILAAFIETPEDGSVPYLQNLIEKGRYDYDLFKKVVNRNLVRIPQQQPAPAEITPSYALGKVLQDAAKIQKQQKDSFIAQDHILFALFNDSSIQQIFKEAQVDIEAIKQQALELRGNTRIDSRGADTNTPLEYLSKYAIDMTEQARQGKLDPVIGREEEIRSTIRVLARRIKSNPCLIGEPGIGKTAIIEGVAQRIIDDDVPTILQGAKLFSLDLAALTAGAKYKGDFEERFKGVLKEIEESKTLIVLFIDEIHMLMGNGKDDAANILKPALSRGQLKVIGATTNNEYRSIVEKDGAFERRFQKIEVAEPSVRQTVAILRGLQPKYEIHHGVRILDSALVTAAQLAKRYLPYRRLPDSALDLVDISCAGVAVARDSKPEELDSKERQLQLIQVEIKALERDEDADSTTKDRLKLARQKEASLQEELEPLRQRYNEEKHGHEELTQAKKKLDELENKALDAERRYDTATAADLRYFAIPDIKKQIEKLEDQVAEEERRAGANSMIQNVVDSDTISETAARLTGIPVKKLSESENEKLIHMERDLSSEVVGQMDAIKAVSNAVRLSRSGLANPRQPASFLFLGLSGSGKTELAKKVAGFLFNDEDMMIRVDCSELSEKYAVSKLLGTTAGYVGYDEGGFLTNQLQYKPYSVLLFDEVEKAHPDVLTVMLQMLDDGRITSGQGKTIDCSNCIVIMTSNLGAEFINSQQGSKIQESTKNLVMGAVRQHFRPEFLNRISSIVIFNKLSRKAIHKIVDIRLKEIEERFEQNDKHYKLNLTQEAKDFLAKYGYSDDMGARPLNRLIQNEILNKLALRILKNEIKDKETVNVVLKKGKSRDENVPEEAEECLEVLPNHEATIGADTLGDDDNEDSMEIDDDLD

Cdc10 = Cdc10 (UniProt P25342)
Sequence of UniProt P25342 (P25342 whole entry): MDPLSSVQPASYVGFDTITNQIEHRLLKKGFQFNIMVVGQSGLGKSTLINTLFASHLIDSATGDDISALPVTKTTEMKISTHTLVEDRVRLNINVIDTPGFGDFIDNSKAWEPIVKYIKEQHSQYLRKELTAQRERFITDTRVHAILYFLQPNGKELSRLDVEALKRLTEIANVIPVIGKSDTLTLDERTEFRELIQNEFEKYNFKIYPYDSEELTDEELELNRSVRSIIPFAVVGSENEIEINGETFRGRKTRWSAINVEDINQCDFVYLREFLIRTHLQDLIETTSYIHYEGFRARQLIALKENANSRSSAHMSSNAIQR

Las17 = Las17 (UniProt Q12446)
Pan1 = Pan1 (UniProt P32521)
Sla1 = Sla1 (UniProt P32790)
Sfk1 = Sfk1 (UniProt P35735)
Hek2 = Hek2 (UniProt P38199)
Cmd1 = Cmd1 (UniProt P06787)
Sequence of UniProt P06787 (P06787 whole entry): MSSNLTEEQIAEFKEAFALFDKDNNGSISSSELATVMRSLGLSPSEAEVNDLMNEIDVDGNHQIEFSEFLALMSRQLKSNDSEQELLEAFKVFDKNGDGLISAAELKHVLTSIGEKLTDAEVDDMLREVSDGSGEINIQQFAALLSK

Nap1 = Nap1 (UniProt P25293)
Sequence of UniProt P25293 (P25293 whole entry): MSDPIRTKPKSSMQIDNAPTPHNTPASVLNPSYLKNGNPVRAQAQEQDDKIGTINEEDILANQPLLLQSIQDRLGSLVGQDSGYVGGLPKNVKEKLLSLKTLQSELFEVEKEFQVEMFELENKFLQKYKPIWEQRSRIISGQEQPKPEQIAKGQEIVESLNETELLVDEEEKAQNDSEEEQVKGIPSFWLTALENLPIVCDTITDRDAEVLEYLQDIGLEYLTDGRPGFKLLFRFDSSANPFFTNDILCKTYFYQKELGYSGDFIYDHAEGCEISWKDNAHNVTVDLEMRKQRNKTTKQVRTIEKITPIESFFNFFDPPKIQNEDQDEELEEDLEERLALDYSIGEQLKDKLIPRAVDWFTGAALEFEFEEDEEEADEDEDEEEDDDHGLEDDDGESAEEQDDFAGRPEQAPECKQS

Ssa1 = Ssa1 (UniProt P10591)
Pkh2 = target: Pkh2

Sequence of UniProt P53049 (P53049 whole entry): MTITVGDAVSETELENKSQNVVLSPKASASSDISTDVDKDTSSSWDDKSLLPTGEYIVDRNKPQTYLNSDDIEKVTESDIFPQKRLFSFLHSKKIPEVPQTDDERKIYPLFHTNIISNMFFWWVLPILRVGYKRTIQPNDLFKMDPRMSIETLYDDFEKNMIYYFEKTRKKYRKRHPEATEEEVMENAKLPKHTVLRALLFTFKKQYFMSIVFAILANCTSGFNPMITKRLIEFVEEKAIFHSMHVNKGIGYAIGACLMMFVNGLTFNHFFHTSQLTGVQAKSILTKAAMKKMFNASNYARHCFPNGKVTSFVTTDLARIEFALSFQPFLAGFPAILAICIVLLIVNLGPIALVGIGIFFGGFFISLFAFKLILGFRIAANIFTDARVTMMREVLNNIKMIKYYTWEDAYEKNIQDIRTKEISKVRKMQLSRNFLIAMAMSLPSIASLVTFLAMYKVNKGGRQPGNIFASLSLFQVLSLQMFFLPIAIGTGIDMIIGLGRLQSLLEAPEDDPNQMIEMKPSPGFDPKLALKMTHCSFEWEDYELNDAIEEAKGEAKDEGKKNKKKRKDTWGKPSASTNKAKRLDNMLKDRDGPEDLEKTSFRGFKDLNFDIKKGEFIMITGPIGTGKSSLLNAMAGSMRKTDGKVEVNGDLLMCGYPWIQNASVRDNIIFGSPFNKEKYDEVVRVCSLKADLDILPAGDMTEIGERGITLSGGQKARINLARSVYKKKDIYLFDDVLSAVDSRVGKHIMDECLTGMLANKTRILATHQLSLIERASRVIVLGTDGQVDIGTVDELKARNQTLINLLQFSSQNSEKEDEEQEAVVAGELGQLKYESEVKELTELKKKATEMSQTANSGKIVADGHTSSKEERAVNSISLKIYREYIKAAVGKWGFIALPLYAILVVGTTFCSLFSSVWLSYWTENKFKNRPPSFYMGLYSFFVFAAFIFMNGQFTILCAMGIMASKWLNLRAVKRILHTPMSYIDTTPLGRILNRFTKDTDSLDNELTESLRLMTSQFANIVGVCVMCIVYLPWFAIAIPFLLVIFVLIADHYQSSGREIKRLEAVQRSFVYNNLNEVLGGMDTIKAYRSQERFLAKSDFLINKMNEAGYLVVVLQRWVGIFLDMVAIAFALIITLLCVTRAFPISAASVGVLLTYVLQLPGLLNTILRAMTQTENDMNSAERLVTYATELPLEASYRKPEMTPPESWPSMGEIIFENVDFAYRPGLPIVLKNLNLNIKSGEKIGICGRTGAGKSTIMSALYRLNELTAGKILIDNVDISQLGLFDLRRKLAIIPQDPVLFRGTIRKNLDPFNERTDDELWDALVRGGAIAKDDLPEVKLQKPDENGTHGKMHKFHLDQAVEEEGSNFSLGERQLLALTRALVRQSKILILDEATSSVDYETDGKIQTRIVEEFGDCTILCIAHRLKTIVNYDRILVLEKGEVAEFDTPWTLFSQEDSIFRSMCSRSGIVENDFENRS
Sequence of UniProt P38328 (P38328 whole entry): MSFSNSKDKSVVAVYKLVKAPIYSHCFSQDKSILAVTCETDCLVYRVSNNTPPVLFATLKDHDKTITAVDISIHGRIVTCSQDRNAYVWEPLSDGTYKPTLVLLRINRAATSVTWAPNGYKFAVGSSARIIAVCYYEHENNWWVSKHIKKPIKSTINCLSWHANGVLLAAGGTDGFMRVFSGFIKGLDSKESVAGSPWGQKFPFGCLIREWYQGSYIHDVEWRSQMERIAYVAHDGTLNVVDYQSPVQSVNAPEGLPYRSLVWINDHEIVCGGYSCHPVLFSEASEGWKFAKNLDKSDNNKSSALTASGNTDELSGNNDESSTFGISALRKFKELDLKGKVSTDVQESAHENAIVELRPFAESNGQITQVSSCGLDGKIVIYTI
Sequence of UniProt P11484 (P11484 whole entry): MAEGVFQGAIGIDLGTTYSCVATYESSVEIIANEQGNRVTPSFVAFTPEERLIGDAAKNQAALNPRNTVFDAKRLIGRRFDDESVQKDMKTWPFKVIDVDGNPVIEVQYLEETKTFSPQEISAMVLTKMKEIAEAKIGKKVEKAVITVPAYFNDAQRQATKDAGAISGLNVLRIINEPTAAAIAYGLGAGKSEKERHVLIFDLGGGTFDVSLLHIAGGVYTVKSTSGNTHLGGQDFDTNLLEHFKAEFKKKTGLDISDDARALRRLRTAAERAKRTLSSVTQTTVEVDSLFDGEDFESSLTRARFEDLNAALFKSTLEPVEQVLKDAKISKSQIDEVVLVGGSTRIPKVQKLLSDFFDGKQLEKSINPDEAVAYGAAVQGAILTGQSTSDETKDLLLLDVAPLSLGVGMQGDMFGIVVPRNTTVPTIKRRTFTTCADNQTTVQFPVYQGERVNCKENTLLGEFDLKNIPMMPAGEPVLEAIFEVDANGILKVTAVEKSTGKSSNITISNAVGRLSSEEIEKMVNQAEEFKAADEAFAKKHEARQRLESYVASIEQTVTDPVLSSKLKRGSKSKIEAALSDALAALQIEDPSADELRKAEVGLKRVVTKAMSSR
Sequence of UniProt P33204 (P33204 whole entry): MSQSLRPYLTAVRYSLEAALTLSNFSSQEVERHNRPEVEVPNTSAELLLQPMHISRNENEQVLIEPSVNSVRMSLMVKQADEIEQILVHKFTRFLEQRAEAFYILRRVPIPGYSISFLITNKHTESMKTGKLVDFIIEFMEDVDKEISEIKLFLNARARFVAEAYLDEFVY

For “Myo5 with SH3 SH3-depleted (from UniProt Q04439)”, the interaction score (Rvs167) was 0.0148, the interaction score (Arc40) was 0.949 and the interaction score (Arc19) was 0.469. The interaction score (Sac6) was 0.766, the interaction score (Yor1) was 0.144 and the interaction score (Ssb1) was 0.94. It also gave an interaction score (Osh2) of 0.0609, an interaction score (Bmh1) of 0.821 and an interaction score (Bbc1) of 0.139. The interaction score (Ste20) was 0.28, the interaction score (Pab1) was 0.813 and the interaction score (Tif4631) was 0.689. For the same substance, the interaction score (Cdc3) was 0.288, the interaction score (Chc1) was 0.599 and the interaction score (Arc18) was 0.775. It also gave an interaction score (Ysc84) of 0.281, an interaction score (Syp1) of 0.199 and an interaction score (Myo5) of 0.763. The interaction score (Pfk1) was 0.874, the interaction score (Mid2) was 0.79 and the interaction score (Sbp1) was 0.852. The interaction score (Lsb3) was 0.339, the interaction score (Vrp1) was 0.606 and the interaction score (Aim21) was 0.454. It also gave an interaction score (Ssz1) of 0.853, an interaction score (Sla2) of 0.341 and an interaction score (Smi1) of 0.547. For the same substance, the interaction score (Bzz1) was 0.34, the interaction score (Ssb2) was 0.946 and the interaction score (Srv2) was 0.398. It also gave an interaction score (Tdh3) of 0.969, an interaction score (Arc15) of 0.877 and an interaction score (Ygl242c) of 0.95. It also gave an interaction score (Hsp104) of 0.771, an interaction score (Cdc10) of 0.289 and an interaction score (Las17) of 0.367. The interaction score (Pan1) was 0.616, the interaction score (Sla1) was 0.27 and the interaction score (Sfk1) was 0.219. The interaction score (Hek2) was 0.342, the interaction score (Cmd1) was 0.27 and the interaction score (Nap1) was 0.514.
“Myo5 with SH3 controlMyo5 (from UniProt Q04439)” gave an interaction score (Rvs167) of 0.5, an interaction score (Arc40) of 0.952 and an interaction score (Ssa1) of 0.902. It also gave an interaction score (Arc19) of 0.766, an interaction score (Sac6) of 0.825 and an interaction score (Yor1) of 0.432. The interaction score (Ssb1) was 0.929, the interaction score (Osh2) was 0.745 and the interaction score (Bmh1) was 0.82. It also gave an interaction score (Bbc1) of 0.758, an interaction score (Ste20) of 0.421 and an interaction score (Pkh2) of 0.102. For the same substance, the interaction score (Pab1) was 0.785, the interaction score (Tif4631) was 0.662 and the interaction score (Cdc3) was 0.433. For the same substance, the interaction score (Chc1) was 0.578, the interaction score (Arc18) was 0.87 and the interaction score (Ysc84) was 0.463. It also gave an interaction score (Syp1) of 0.527, an interaction score (Myo5) of 0.898 and an interaction score (Pfk1) of 0.855. The interaction score (Mid2) was 0.857, the interaction score (Sbp1) was 0.827 and the interaction score (Lsb3) was 0.624. For the same substance, the interaction score (Vrp1) was 0.912, the interaction score (Aim21) was 0.756 and the interaction score (Ssz1) was 0.83. For the same substance, the interaction score (Sla2) was 0.644, the interaction score (Smi1) was 0.532 and the interaction score (Bzz1) was 0.823. The interaction score (Ssb2) was 0.93, the interaction score (Srv2) was 0.628 and the interaction score (Tdh3) was 0.965. The interaction score (Arc15) was 0.901, the interaction score (Ygl242c) was 0.929 and the interaction score (Hsp104) was 0.76. For the same substance, the interaction score (Cdc10) was 0.374, the interaction score (Las17) was 0.877 and the interaction score (Pan1) was 0.926. The interaction score (Sla1) was 0.539, the interaction score (Sfk1) was 0.716 and the interaction score (Hek2) was 0.36. It also gave an interaction score (Cmd1) of 0.582 and an interaction score (Nap1) of 0.463.
“Myo5 with SH3 AncB (from UniProt Q04439)” gave an interaction score (Rvs167) of 0.567, an interaction score (Arc40) of 0.964 and an interaction score (Arc19) of 0.771. The interaction score (Sac6) was 0.823, the interaction score (Yor1) was 0.488 and the interaction score (Ssb1) was 0.941. The interaction score (Osh2) was 0.755, the interaction score (Bmh1) was 0.823 and the interaction score (Bbc1) was 0.758. It also gave an interaction score (Ste20) of 0.482, an interaction score (Pkh2) of 0.0795 and an interaction score (Pab1) of 0.797. It also gave an interaction score (Tif4631) of 0.672, an interaction score (Cdc3) of 0.515 and an interaction score (Chc1) of 0.603. The interaction score (Arc18) was 0.878, the interaction score (Ysc84) was 0.505 and the interaction score (Syp1) was 0.564. For the same substance, the interaction score (Myo5) was 0.901, the interaction score (Pfk1) was 0.867 and the interaction score (Mid2) was 0.854. The interaction score (Sbp1) was 0.832, the interaction score (Lsb3) was 0.637 and the interaction score (Vrp1) was 0.919. The interaction score (Aim21) was 0.755, the interaction score (Ssz1) was 0.834 and the interaction score (Sla2) was 0.646. The interaction score (Smi1) was 0.562, the interaction score (Bzz1) was 0.818 and the interaction score (Ssb2) was 0.932. It also gave an interaction score (Srv2) of 0.649, an interaction score (Tdh3) of 0.97 and an interaction score (Arc15) of 0.898. The interaction score (Ygl242c) was 0.942, the interaction score (Hsp104) was 0.767 and the interaction score (Cdc10) was 0.416. It also gave an interaction score (Las17) of 0.875, an interaction score (Pan1) of 0.926 and an interaction score (Sla1) of 0.568. The interaction score (Sfk1) was 0.733, the interaction score (Hek2) was 0.417 and the interaction score (Cmd1) was 0.497. For the same substance, the interaction score (Nap1) was 0.52.
